According to a protein production outcome set (Wang et al. 2014):

Experiment: label from the status in PepcDB records

Sequence | protein production
MQQMNSRLKLTMAVALTAIVLLAGCASTPDWPVSARDNTKPVYSEKLLEQVPFYPQEKYQCGPASLAMMLNAQGLATNPDILKELVYLPGKEGSLQVEMVAGARAHDMLVYRLEPEPEAILAEVEAGNPVLVMQNLRLSWWPQWHFAVVVGYDSTEQVFILNTDTRRHYEMPYKVFYNTWSKAERWAAVILPPDQTPASAEMLPYLQAAHDLETTGHTLAAQRAYQTAITRWPEQPTPLMANANLQYQLGHFQNAVGSFLRVVEKFPGFSEGWNNLAIALNDAGCPARARQASECAAGLAPKRFKPLQDEARSHAADAAACPQIPACPSNAH | failed
MDEILTNTATPEVGGVAQLSPSAARTKARIALAVMLVPLFGTLEAIRLWFTGQVHALDFILFAVFYAVQMFGVSMGYHRYLAHRAFKTSRLMSSLMLIAGCMAAQGPILFWVTTHRRHHTYSDQHGDPHSPNLMGQSRWQRAKGLWHAHMPWMLAPDMSSWNFFAPDILRDRRLFFYNQTYLFWVALGVILPGVIGGLVSQSWSGAWSGLIFGGLARIFVANQAAWCVGSICHRYGARPFVTHDQSTNNWIVAFLTFGEGLQNNHHAFPAWYRHGVHWWEPDLSGWTLALMGKLRLVSDLRSPSQAMIDKVRKRQASS | failed
MMDSHCRVRAPGAAQPADCPPPTTQHAALAARLGHARLHTLYDQATWSEGPAWWEAQRTLVWSDVVGRRVLGWREDGAVDVLLDATAFTNGNAVDTQQRLVHCEHGRRAITRSEVDGRAHLLVGRFEGKRLNSPNDLIVARDGAIWFTDPPFGLRKPSQGCPGPQELDHHGVYRLPPDGGALQCMVNLDHPNGLAFSPDERVLYVSQTPEGGPGAPEITALDWHDGALHNRRRFAVVPEGLPDGFCVDCQGWLWSSSGAGVCVFDSGGHVLGLVPTPHTASNCTFDLVQRRLFITGGSTLWLLDLQR | failed
MVVKASGGSSVARPQLYQTVPVSTIIQAEQQDRFLNRGELDELAVYLRSGAKRLEIATTLTRNADIIVSRAANRIFVGGSPMAFLSRPQTEEAPQFTTGARGEAIDIKEAMKLGTATYVDTRGGFLEGLRSIFSASSGGAPVGFKPINIARYGPARMEKSLRDLDWFLRYTTYAIVAGDPNILAVNTRGLREIIEAACSSDATIAALQEMRRAALSYFEKDAEAKGIVETYFDVLINEFIAPAPSDKVRQRNSTDLQGLQLPQIYFNAAERRPKFVMKPGLSAAEKNEVVKAAYRQIFERDISRAYGLGISDLESKVKNGSISMKEFIRQLAKSPLYRKNFYEPYINSRALELAFRHILGRGPSSREEVQTYFAIISKGGLPALVDALVDSKEYSDYFGEETVPYLRGLGQEAQECRNWGAQQDLFKYSAPFRKVPQFITTFAAQDQPLPDQHPYGSGNDPLEIQFGAIFPKEKKNPSARPQPFNKDTRRILIARGPGINNQVSNPGARGLTPGTLGPKVFKLDQLPSINARIGKRSIATGTDSVKFAESSTQRVIRAAYLQVFGRDVYEGQRQKVAEIKLENGEISVREFVRILAKSNLFRSLYWTPLYVTKAIEYIHRRLLGRPTYGRQEMNAYFDIASKKGLYGLVDAIIDSQEYSEAFGEDTVPYERYITPQGLALRSLRVGTIGETGVPPEKEETPRFVELGAVTELRTEPAIQFRANQGVSKRREQTKVFKLTDLNDKQNLQLVIQAAYRQVFERDVAPYIVRDEFTALESKLSNGEITLKEFIEALGCSELYQKEFYTPYPNTKVIELGTKHFLGRAPLDQAEIRRYNQILATQGLKAFVQALVSSAEYAQAFGEDTVPYRRFPTLPAANFPNTEKLHNQLTKQSDAIVVPSFAPVKPRLDNTKLPLLSRAIAEQEAKARQADPSKPRFIELGRSFRNGDGQSVEVGVGTTRRRPARIFRMTVGAPSAEVELVINAIYCQVMDVFSGQVPSQFRRPDLESRLRNGEITVREFVRTLASSEIYRNRFYTPYPNTKVIEFLFRHLLGRAPATQAEIRQYNKILADQGLKTAVETMVNSPEYSRYFGEDVVPYKRFPTLPAGNYIGSVKADADLVKQSWSSLSPSLVGIQPSHRD | failed
MKKVIGAATATVFGLGAFTTTATAETIVTADVLNVREKPTTESKVVEKVKNGEELKVINTEDGWSKIELNGKEVFVSSEFTKDIYHVTADLLNVRSESNTESKILGRLKKDDVIESTNQVKDGWLQFEYKGKTAYVNVSFLSSKAPIEKKADEKTKQVAKVQKSVKAKEEAKTQKITKAKETIKPKEEVKVQEVAKPKEEVKVQEVAKPKEEVKVQEVAKPKEEVKVQEVVKPKEEVKVQEVVKPKEEVKVQEVAKAKEEAKVQEIAKAKEEAKAQEIAKAKEEAKAQEIAKAKEEAKAQEIAKAKEEAKAQEIAKAKEEAKAQEIAKAKEEAKAQEIAKAKEEAKAQEIAKAKEEAKAQEIAKAKEEAKAQEIAKAKEEAKEREIAKAKEEAKAREIAKAKEEEKAREALKAKEESKNNVQSAKRELTVVATAYTADPSENGTYGGRVLTAMGHDLTANPNMRIIAVDPKVIPLGSKVWVEGYGEAIAGDTGSAIKGNRIDVLMGSKSKAMNWGRQTVKVKILLEHHHHHH | failed
MFEVTVSKRLLKSGIIVSAMTLISRVLGLVRDVVVANLMGAGASADVFFFANRIPNFLRRLFAEGAFSQAFVPVLTEYHASGDINKTRDLIARASGTLGVLVTIVTLIGVLGSGAVTALFGAGWFLDWLNGGPAAGKFELASLLLKITFPYLWFITFVALSGAILNTLGKFAVSSFTPVFLNVMMILCAWYLSPNLEQPEVGLAIGVFLGGLVQFLFQLPFLIKAGVLVRPKWGWKDPGVVKIRTLMIPALFGVSVSQINLLFDSFVASFLQTGSISWLYYSDRLLEFPLGLFGIAIATVILPALSRKHVDAHSDGFAHTMDWGIRMVTFLGIPAMLGLMVLAKPMLMVLFMRGEFTPSDVEQASYSLLAYSSGLLSFMLIKVLAPGYYSRQDTKTPVRYGIIAMVSNIVLNAIFAWFYGYVGLAVATSMSAFLNMALLYRGLHLQGVYHLTRKTVWFVARLAMAGAVMTGALLWQLDTMATWLSWGISQRALTLTGLIGLGVASYLAILLLLGVRLKDLKAATE | failed
MTSLPTSLLGDLDPTSDRAVFRQIADQLREAIDRGRFKEGEKLPSEAELVEHYGVSRMTVRNSFSILQGEGLVHAEHGKGVFVRPRPPVRRLASDRFARRHREQGKSAFIVEADAAGSHPQVDSLEVKEEKASQDISTRLGSVRRVLARRRRYLLDGRPVEFATSYLPLDIARDTPIAEPNPGPGGIYARLEELGHRLDHFEEEIRARMPSPSEVKTLRLASGVPVIHLIRTAYDTEGRAVEVCDTVMAADAYVLSYQLPAT | failed
MARHLITSALPYINGIKHLGNMVGSMLPADVYSRYLRQRGHDVLYICATDEHGTPAELAAKERGLPVDEFCAQAHDAQKAVYDGFELAFDYFGRSSSEQNREITQHFARRLNENGFIEERAIRQVYSPADGRFLPDRYVEGTCPHCGYDKARGDQCENCTRVLDPTDLINPRSAISGSTDLEVRETKHLFLLQSKLQHEVEEWVARHEEEWPQLASSIARKWLNEGLHDRAITRDLDWGVPVPADTWPELAAEGKVFYVWFDAPIEYIGATKEWSDLDPENRDWKSWWYDADSGENPVRYTEFMAKDNVPFHTVMFPATELGVREPWKKVDYVKAFNWLTYYGGKFSTSQKRGVFTDHALEILPADYWRYFLIANAPESDDSSFTWEHFTATVNKDLADTLGNFVNRVLSFSKKRFGEEVPAGAPAGESETKLGEEIAALLAEYESHMETLQFRKAAAALRALWSAGNSYLEEKAPWLEIKTNPEGAALTLRTAMNLIHLYSVVSEPFIPASSKAMRSAFALSEDTATWVTQDEAKSLDSVPAGTPFTVPPVLFAKITDEDLESYKERFGGAPE | failed
MREHLKLFSLIFSYPDEDKLGKAIALAEGIGLTEIAQTLKQVDIEALQVEYTSLFISSHPSVPCPPYQSYFEEGSVYGKASLRAAELYSKYGLNYVYESEPPDHISVELEFLSMNPELLSDFRDWFLEFAKCVEEKSEIYATFARAFRKFLEKPSKVQS | not failed
LTRWGAFRNITLPLALPGLAAAAMFTFVMSWNEVFVASILTLKNRTLPAQILSIVAGAAGGAAPAYYKFAAAFIMTLPAMLFIFFARRYLVTMWGITL | failed
MTQLIKSLPGWLKLMLIFPIFFLNGVLLSLIINRFRELFDYIIIATLVTFLLKLTINFLVSKGIGKRLAIFAVITISFALIALGGITLIPLMGNQLGNLSQDIPRWLSGSQEHLANLKNSTLFLTLDNAGVNVDDLFQKAYLTLSKELDRIGQISLKVLTETIGGVVDTLVILVLTIFLLVGGDTFWQGILSWLPSPWEKKIPQYAGEIFRDYFISRLILAAGSSMARLVVFMALGIPYSILFAFSLGLASLIPFAGAVVTLIGTLVLLLKGWVVAVKFFVSAIVIDQITDNGVAPKLMGDKIGLNPVWILISIFIGAEIAGLLGVLLAVPIASVIKKVIDDMRAGKTENEEIDTEEQVEVLPESLA | failed
KTFMIGVTSCISGDGKSFCSHNLARIYAISGKKTLLIRGDMRKAFNAPANLIPQGSMGLSQHLIGMATIDQIIHKGEIENLYQIIPGPVPPNASELVASQKMEEFIRIMKDKFEVVIMDSPPVGLVSDYMSVIKHIDANLYIVRYDYTPKETLEAIKDLKNKYPAQSHSIIFNGIT | failed
GRAPRNGEKVLVEFVSANPTGPLHVGHARQAALGDAICRLYDASGWDVTREFYYNDAGNQIDNLAISVQARGRGIAPDAPDYPADGYKGDYIVEIARDFAARKSVQASDGQPVTATGDLDSLDDIRAFAVAYLRREQDLDLQAFGLAFDNYFLESSLYASGRVQETVDTLVAKGHTYEEGGALWLRTTELGTGDDKDRVMRKSEGGYTYFVPDVAYHKVKWERGFHHAVNIQGSDHHGTVARVRAGLQGLAGIPKDFPAYVLHKMVKVMRGGEEVKISKRAGSYVTMRDLIDWVGRDAVRYFLIQRRADTEFVFDIDLALSKSDENPVYYIQYAHARICTMIGNSGA | failed
MINMKVAISMDVDKISNSFEDCKYFLIVRIDDNEVKSTKVIFNDESGKKSIVKENVNAIICKNISEENYKKFSKKIEIYHAEGDDVDKNISLFIEGELSKISNP | not failed
MKTVLAFGDSLTWGADPATGLRHPVEHRWPDVLEAELAGKAKVHPEGLGGRTTCYDDHAGPACRNGARALEVALSCHMPLDLVIIMLGTNDIKPVHGGRAEAAVSGMRRLAQIVETFIYKPREAVPKLLIVAPPPCVAGPGGEPAGGRDIEQS | not failed
MVAIDYVVIGAGYAGLMCAEALMDKGFKTLVFDMRESGGEIVVFSKLEEFRSKYEKYIEKIEEIRKDIPVDIGTVIKSKPVIINSGNGLKRYEARRVILATGATDTAPVKLNVLSKKIEGIYTLENALREISENNKIGEKVLIAAKDDVIVKLAESQLSDLGYDVEISELTNDIQVIGKERVEGVEISGVRYSCDTLVVYGGRNPFNPLKLRGTPVGNVVTCTYDYSKVEENVKNFLAKILEHHHHHH | failed
MNLNAKKTTTAVQSASENPKLRVMPKQLFSRTPVLAGGNAAAKREEIREYFHSTLDRYEQLFETLRGDAAYFKKPISLRHPLIFYLGHTATFFTNKLLLAGLITDRINPKMESMFAVGVDEMSWDDLDTTHYDWPSVEEVRAYRRRMRETVDRLIRETPLTLPIEWDSPWWTIMMGIEHERIHLETSSVLIRQHALEHVAPHPAWEPCRKSGPAPDNQLVKVPEGTVQLGKKKDDPFYGWDNEYGTHIADVAAFEAGKYLVSNQEFLEFVQADGYETESYWEEEGRAWLKHAGAKHPTFWIRRGGEWELRLMTKEISMPWDWPVEVNYHEAKAFCNWKAAVSGQPYRLPTEDEWYRLYEVAGLSEVPAAAPAMANIHLDHGASSHPVNEFAQGDFYDVVGNVWQWTETPIYPFDGFDVHPHYDDFTTPTFDGRHNLIKGGSWISCGNESLKNSRYAFRRHFFQHAGFRYVVGTAPAIQHGSHYETDKLLSEYAEFHYGDTYFDVPNFPKALAELAIAAMGDKPAHKALDLGCASGRAAFELARHFDEVTGVDFSARFIGQGVQLASQGVLRYTLADEGDLVLYRERTLAGLGLDGVRHKVAFYQGDACNLKPIYTGYDLILAANLIDRLYDPAKLLTSIHTRINSGGILLIASPYTWLEEHTKREAWIGGFKRDGESFGTLDGLKEILGAHFRLIQGPTEVPFVIRETRRKFQHTLSEVTIWEKTA | failed
